In assay [1] the target is HIV-1 subtype C 1086.C gp120 (reference standard lot) (HIV-1 group M subtype C, strain 1086.C). In words: non-reduced SDS-PAGE; purified gp120 reference material; the dimer band disappeared completely upon reduced SDS-PAGE.
The target in assay [2] is HIV-1 subtype C TV1.C gp120 (reference standard lot) (HIV-1 group M subtype C, strain TV1.C). Described as above.

“HIV-1 subtype C 1086.C gp120 (reference standard lot) (natural protein)” had a stoichiometry N in assay [1] of 2.

In the case of “HIV-1 subtype C TV1.C gp120 (reference standard lot) (natural protein)”, the stoichiometry N in assay [2] amounted to 2.
